{"source": "paper PMC3209554", "origin": "cited, not measured here", "target": "ClpX N domain (Escherichia coli) (UniProt P0A6H1)", "sequence (P0A6H1 2-56)": "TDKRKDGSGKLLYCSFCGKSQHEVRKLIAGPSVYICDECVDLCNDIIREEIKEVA", "note": "pKd: −log10 of the molar value.", "data": [{"substance": "SspB C-terminal tail (from UniProt P0AFZ3)", "values": [{"measurement": "pKd", "value": 4.70}]}]}
